Values joined by “and” are separate entries in the source; they are usually repeats but may differ in a detail not shown here. Identical values can stand only once.

For series [1] the following is noted: cited from earlier work; for bleomycin induced pulmonary fibrosis: Xu et al 2007.
A further series concerns Ramos tumor cells. In words: Apoptosis assay (annexin V / propidium iodide flow cytometry). The series is classed as cell-based, human. The conditions noted are these: annexin V and propidium iodide double positive, 24 or 72 hours. The method, then: The ability of an i-body of the invention to induce apoptosis in Ramos tumor cells (a human Burkitt's lymphoma cell line) was examined in an apoptosis assay according to the methods as described in Mishra M et al (2011) J Cell Mol Med 15(11):2462-77. I-bodies were incubated with Ramos cells and examined by flow cytometry after 24 or 72 hours. The cells were stained for annexin V and propidium iodide which are classic markers for apoptosis. Cells which were double positive were assessed to have become apoptotic.
(In general: Flow cytometry measures light scatter and fluorescence of single cells or particles in a stream.)

Series [2] addresses T1, human CXCR4 (CXCR4 positive lipoparticles) (Homo sapiens, UniProt P61073).
T1 construct: purchased Integral Molecular LEV-101B
In words: Biacore SPR kinetic binding to immobilised CXCR4 lipoparticles. The method, then:
(FIGS. 2A-2C, 5A-5C, 11A-11D, 17A-17B) Kinetic binding analysis of selected i-bodies with immobilized CXCR4 lipoparticles were performed at 25° C. using Biacore T200 instrument (GE Healthcare, Uppsala, Sweden). Streptavidin immobilization was performed in 1×HBS-P+ running buffer (10 mM HEPES, 150 mM NaCl, 0.05% [v/v] Tween-20). […] All binding experiments involving lipoparticles were performed with 1×HBS/BSA (10 mM HEPES, 150 mM NaCl, 1 mg/mL BSA) as instrument running buffer. […] In order to determine binding kinetics, serial dilutions (three-fold) of i-bodies diluted in 1×HBS/BSA were injected over immobilized lipoparticles with the association and dissociation phases monitored for 60 sec and 600 sec, respectively. A control measurement of the instrument running buffer (“zero-buffer” blank) solution was also included for double referencing purposes. Collected experimental data were processed using Scrubber software (www.biologic.com.au). Kinetic parameters (ka=association and kd=dissociation rate constants) and equilibrium dissociation constant (KD=kd/ka) were derived by fitting each set of experimental data to a Langmuir 1:1 binding model. All interaction measurements were performed in triplicate and the derived binding parameters reported as averaged values±standard deviation.
(SPR reads the build-up and loss of mass on a sensor chip optically.)

For a further series, the target named is CXCR4 (Homo sapiens, UniProt P61073). The experiment in a line: β-arrestin BRET assay, antagonist mode with 100 nM SDF-1. The series is classed as cell-based. The conditions noted are these: for β-arrestin activity: various concentrations. Details: expressed in transfected cells; host or cells: HEK293FT. The text has this:
(FIGS. 3A-3F and 14) BRET was used in this study to assess the real-time kinetic profiles resulting from any consequent increase in proximity, building upon the previously validated monitoring of GPCR/β-arrestin interactions utilizing BRET. BRET occurs between a complementary Renilla luciferase (Rluc) variant as donor and green fluorescent protein variant as acceptor. Upon Rluc-catalyzed oxidation of the coelenterazine substrate (such as coelenterazine h for first generation BRET (BRET) or EnduRen for extended BRET (eBRET), energy is transferred to the acceptor if within 10 nm, resulting in acceptor light emission peaking at a characteristic wavelength. BRET (3-arrestin assays were carried out as described previously (See, H. B., Seeber, R. M., Kocan, M., Eidne, K. A. and Pfleger, K. D. (2011) ‘Application of G protein-coupled receptor-heteromer identification technology to monitor beta-arrestin recruitment to G protein-coupled receptor heteromers’, Assay Drug Dev Technol, 9(1), 21-30, 10.1089/adt.2010.0336). CXCR4/Rluc8 cDNA constructs were generated from plasmids containing the respective receptor cDNA tagged with Rluc kindly provided by Aron Chakera (Oxford University, United Kingdom). The β-arrestin 2/Venus cDNA construct was prepared previously from pCS2-Venus kindly provided by Atsushi Miyawaki (RIKEN Brain Science Institute, Wako-city, Japan). BRET technology in cells transiently expressing CXCR4/Rluc8 and β-arrestin2/Venus in the presence of 100 nM SDF-1 agonist was evaluated in the presence of the CXCR4 agonist SDF-1/CXCL12 and the i-bodies. HEK293FT cells were maintained at 37° C., 5% CO2 in Complete Media (Dulbecco's modified Eagle's medium containing 0.3 mg/mL glutamine, 100 IU/mL penicillin, and […] streptomycin; Gibco) supplemented with 10% fetal calf serum (FCS) and […] Geneticin (Gibco). Transfections were carried out 24 h after seeding using Genejuice (Novagen) according to manufacturer's instructions. Cells were harvested with 0.05% Trypsin-EDTA (Gibco). HEK293FT cells were transfected using FuGene6 (Promega). 5 μM coelenterazine h (Promega) in HBSS was used as the luciferase substrate solution. Cells were harvested 24 h post-transfection in HEPES-buffered phenol red-free Complete Medium containing 5% FCS and added to a poly-L-lysine-coated white 96-well plate (Nunc). Dose-response curves were generated using BRET, with medium in the plate being replaced with PBS containing […] coelenterazine h (Molecular Probes) and assays carried out immediately. For these assays, 48 h post-transfection, the plate was incubated at […], 5% CO2 for 2 h with […] EnduRen (Promega) to ensure substrate equilibrium was reached. All BRET measurements were taken at 37° C. using the VICTOR Light plate reader with Wallac 1420 software (PerkinElmer). Filtered light emissions were sequentially measured at 400-475 and 520-540 nm. The BRET signal was calculated by subtracting the ratio of 520-540 nm emission over 400-475 nm emission for a vehicle-treated cell sample from the same ratio for a second aliquot of the same cells treated with agonist (in this instance in the presence of SDF-1 or CXCL12) and i-body (ADCX-99, ADCX-272, ACDX-6, ACDX-306, ADCX-668) at various concentrations. Data are mean±S.E.M. of four independent experiments carried out in duplicate.
Binding of the i-bodies to CXCR4 were examined in a β-Arrestin BRET assay as described in See, Heng B et al (2011) Assay and Drug Development Technologies 9(1):21-30. The i-bodes were examined at ten concentrations with and without 100 nM SDF-1 with the addition of ‘vehicle’ and ‘SDF-1+vehicle’ controls in order to characterise if the i-bodies are agonist or antagonists of CXCR4 activity.
On the technique in general: In BRET a luciferase serves as donor, and the signal depends on an acceptor being close.

The conditions of series [3]: mouse, in vivo, iv, 2 mg/kg.
Procedure: A series of blood samples from all mice (0.3 mL, 2 time point/mouse 3/group/time point) were collected following dosing as follows:
For this purpose, each mouse (CD-1 mouse) was bled via the saphenous vein or under isoflurane anaesthesia by cardiac puncture and the samples collected into tubes containing the anticoagulant, K2-EDTA. Tubes were placed on wet ice pending processing. Following its last blood sampling, each animal was euthanized by cervical dislocation and discarded without further examination.
Following collection, the samples were centrifuged (approximately 4° C.) and the resulting plasma was recovered in two separate aliquots and stored frozen (60° C.) in labeled Protein LoBind 1.5 mL tubes (Eppendorf, cat no. 022431081).
In the next series the test system is CCL2 and CCL5 protein. The experiment in a line: CCL2, CCL5, CXCL12 ELISA of fibroblast conditioned supernatants. The conditions noted are these: 48 hours. The series is classed as cell-based, human. The text has this: Various reports indicate that CXCR4 signals in conjunction with other chemokine receptors, including CCR2.
[4] abbreviates: CXCR4 expressed on lipoparticles (Table 4).

Chain of CXCR4 (P61073 whole entry): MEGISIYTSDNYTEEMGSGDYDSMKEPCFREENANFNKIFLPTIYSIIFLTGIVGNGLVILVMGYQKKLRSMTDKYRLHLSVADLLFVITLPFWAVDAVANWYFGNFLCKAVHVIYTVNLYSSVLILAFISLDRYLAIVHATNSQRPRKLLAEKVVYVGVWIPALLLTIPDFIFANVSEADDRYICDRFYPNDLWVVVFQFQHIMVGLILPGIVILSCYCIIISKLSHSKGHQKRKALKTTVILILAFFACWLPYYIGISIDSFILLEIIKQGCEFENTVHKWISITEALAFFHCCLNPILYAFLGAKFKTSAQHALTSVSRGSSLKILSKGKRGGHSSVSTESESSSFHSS
T1 sequence (P61073 whole entry): as above

For the molecule `c1cnc(NCc2ccc(CNc3ncccn3)cc2)nc1` [MSX-122], the “development of pulmonary fibrosis in irradiated mice” value in series [1] (Shu et al 2013) is “significant reductions in development of pulmonary fibrosis”. Also, the “bleomycin induced pulmonary fibrosis” value in series [1] is given as “completely preventing bleomycin-induced lung fibrosis”.
In the case of `C/C=C(/C)C(=O)O[C@H]1C(C)=C2[C@H]([C@@H]1OC(=O)CCCCCCC)[C@@](C)(OC(C)=O)C[C@H](OC(=O)CCC)[C@@]1(O)[C@H]2OC(=O)[C@@]1(C)O` [Thapsigargin, reference compound], the “induction of apoptosis in Ramos cells” value with Ramos tumor cells is “expected level of apoptosis”.
On to TN14003, for which the “bleomycin induced pulmonary fibrosis” value in series [1] is recorded as “blocks development of pulmonary fibrosis”.

B1: AM3-920: affinity matured CXCR4 i-body, SEQ ID NO: 44 (protein)
chain: LQVDIVPSQGEISVGESKFFLCQVAGSGSGIRISWFSPNGEKLTPNQQRISVVWNDDSSSTLTIYNANIDDAGIYKCVVWRTGGYRHRYLVLGEATVNVKIFQ
modifications: protein sequence encoding AM3-920
Turning to B1, in series [2] (setting [4]), the Ka is 1.117e+06 M⁻¹ s⁻¹ and 1.26e+06 M⁻¹ s⁻¹; the “dissociation rate constant (kd)” value was 8020 M⁻¹ s⁻¹ and 7410 M⁻¹ s⁻¹. Moreover, the “dissociation rate constant (kd)” value in series [2] (off-rate, CXCR4 expressed on lipoparticles (Table 3)) worked out at 0.00817. For the same molecule, the “IC50 in β-Arrestin BRET assay (Antagonist mode in the presence of 100 nM SDF-1)” value with CXCR4 (only an order of magnitude is printed in the cell) is listed as “~uM”.

B2: AM3-523-6H: AM3-523 with 6 His tag, containing the N-terminal sequence EAEA (protein)
chain: EAEALQVDIVPSQGEISVGESKFFLCQVAGSGSHMRISWFSPNGEKLTPNQQRISVVWNDDSSSTLTIYNANIDDAGIYKCVVWRVGGYRHRALVLGEATVNVKIFQ
modifications: left off: small tags and cut ends
In the case of B2, the “induction of apoptosis in Ramos cells” value with Ramos tumor cells is “strongly induce apoptosis”.

B3: AM3-114-Im7-FH-SA21: dual specificity i-body, AM3-114 with 18-residue HSA binding peptide SA21, SEQ ID NO: 80 (protein)
chain: MALQVDIVPSQGEISVGESKFFLCQVAGSLSGIRISWFSPNGEKLTPNQQRISVVWNDDSSSTLTIYNANIDDAGIYKCVVWRTGGYRHRYLVLGEATVNVKIFQGGGGSELKNSISDYTEAEFVQLLKEIEKENVAATDDVLDVLLEHFVKITEHPDGTDLIYYPSDNRDDSPEGIVKEIKEWRAANGKPGFKQGGGGGSDYKDDDDKGSGHHHHHHHHGGGGSRLIEDICLPRWGCLWEDD
modifications: protein sequence encoding AM3-114-Im7-FH-SA21 dual specificity ibody
Regarding B3, in series [3], the AUC0-T was found to be 25266 ng·h/mL, the “Auc0-∞” value is 25544 ng·h/mL, the C0 worked out at 23284 ng/mL and the ClTOT was 1.3049 mL/min/kg. In series [3], this molecule yielded a Thalf of 0.95 h, a Tlast of 6.00 h, a VD of 0.107571 L/kg and a λZ of 0.7279 h⁻¹.

B4: 21H5-6H: control iBody 21H5 with 6 His tag (protein)
chain: LQVDIVPSQGEISVGESKFFLCQVAGDAKDKDISWFSPNGEKLTPNQQRISVVWNDDSSSTLTIYNANIDDAGIYKCVVTGSDAMSNYSYPISESEATVNVKIFQ
With B4, the “CCL5 levels in IPF lung fibroblasts” value in the series with CCL2 and CCL5 protein was “observed in one slow-IPF lung fibroblast line”.

B5: ADCX-668: CXCR4 binding i-body, SEQ ID NO: 26 (protein)
chain: LQVDIVPSQGEISVGESKFFLCQVAGTIWYEQISWFTPNGEKLTPNQQRISVVWNDDSSSTLTIYNANIDDAGIYKCVVWTRPVTSSMHEATVNVKIFQ
modifications: protein sequence encoding ADCX-668
On to B5, for which the β-arrestin activity entry with CXCR4 is recorded as “some degree of inhibition”.

B6: ADCX-306: CXCR4 binding i-body, SEQ ID NO: 29 (protein)
chain: LQVDIVPSQGEISVGESKFFLCQVAGFQEWVNWFSPNGEKLTPNQQRISVVWNDDSSSTLTIYNANIDDAGIYKCVVTMPHTLNNLDVRTEATVNVKIFQ
modifications: protein sequence encoding ADCX306
In the case of B6, the β-arrestin activity result with CXCR4 is “some degree of inhibition”.

B7: ADCX-6: CXCR4 binding i-body, SEQ ID NO: 17 (protein)
chain: LQVDIVPSQGEISVGESKFFLCQVAGLTSLEGISWFSPNGEKLTPNQQRISVVWNDDSSSTLTIYNANIDDAGIYKCVVEDHPQYSKMEEATVNVKIFQ
modifications: protein sequence encoding ADCX-6
With B7, in the series with CXCR4, the β-arrestin activity entry is given as “some degree of inhibition”.

Values taken from patent publication US11142588B2, “Polypeptides which bind C-X-C chemokine receptor type 4 (CXCR4) and methods of treating or reducing the risk of fibrosis and cancer” (AdAlta Limited, priority 2015, dated 2021).
